{"source": "paper doi:10.1101/558098", "test_in_all_cases": "EMSA", "key": {"YBX1 [1]": {"biological_target": "T1, YBX1 (human, UniProt P67809 1-324)", "T1 sequence (P67809 whole entry)": "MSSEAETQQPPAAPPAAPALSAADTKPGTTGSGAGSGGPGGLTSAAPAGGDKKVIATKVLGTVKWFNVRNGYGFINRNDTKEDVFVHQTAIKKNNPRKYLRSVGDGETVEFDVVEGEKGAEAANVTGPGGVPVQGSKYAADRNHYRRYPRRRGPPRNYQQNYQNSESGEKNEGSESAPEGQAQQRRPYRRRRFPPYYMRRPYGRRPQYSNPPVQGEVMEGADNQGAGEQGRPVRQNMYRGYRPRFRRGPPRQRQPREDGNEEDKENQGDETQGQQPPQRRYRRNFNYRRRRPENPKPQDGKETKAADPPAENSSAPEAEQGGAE"}, "IMP1 [2]": {"biological_target": "T2, IMP1 (human, UniProt Q9NZI8 1-577)", "T2 sequence (Q9NZI8 whole entry)": "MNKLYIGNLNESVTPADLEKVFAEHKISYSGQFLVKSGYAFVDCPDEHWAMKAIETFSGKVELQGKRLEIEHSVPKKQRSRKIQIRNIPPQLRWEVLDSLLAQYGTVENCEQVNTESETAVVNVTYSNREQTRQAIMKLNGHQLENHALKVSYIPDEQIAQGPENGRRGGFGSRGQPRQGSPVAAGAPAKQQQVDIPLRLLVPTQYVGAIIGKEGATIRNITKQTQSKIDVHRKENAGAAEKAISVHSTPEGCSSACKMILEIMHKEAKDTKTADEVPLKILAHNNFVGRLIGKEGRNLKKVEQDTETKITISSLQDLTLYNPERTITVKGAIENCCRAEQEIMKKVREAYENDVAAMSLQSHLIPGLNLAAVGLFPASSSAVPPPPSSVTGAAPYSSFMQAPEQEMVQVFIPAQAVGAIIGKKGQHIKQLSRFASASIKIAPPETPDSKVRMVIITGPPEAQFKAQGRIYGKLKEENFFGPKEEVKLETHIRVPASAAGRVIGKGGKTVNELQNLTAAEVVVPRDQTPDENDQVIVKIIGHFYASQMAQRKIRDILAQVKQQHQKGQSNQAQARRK"}, "IMP1_KH1-4mut": {"biological_target": "IMP1_KH1-4mut (human, UniProt Q9NZI8 1-577, K213E;E214L;K294E;E295L;K423E;K424L;K505E;G506L)", "sequence (Q9NZI8 whole entry K213E/E214L/K294E/E295L/K423E/K424L/K505E/G506L)": "as the sequence (Q9NZI8 whole entry) above, with K213E, E214L, K294E, E295L, K423E, K424L, K505E, G506L counted along it"}, "YBX1 [3]": {"biological_target": "T1, YBX1", "remark": "listed apart in the source"}, "IMP1 [4]": {"biological_target": "T2, IMP1", "remark": "listed apart in the source"}, "YBX1 [5]": {"biological_target": "T1, YBX1", "remark": "listed apart in the source"}, "IMP1 [6]": {"biological_target": "T2, IMP1", "remark": "listed apart in the source"}, "IMP1 [7]": {"biological_target": "T2, IMP1", "remark": "listed apart in the source"}, "YBX1 [8]": {"biological_target": "T1, YBX1", "remark": "listed apart in the source"}}, "note": "Like-named read-outs stand apart in the source and are kept apart here."}
{"binder": "C-MYC 3'UTR (ssRNA) RNA: GGAAAAGUAAGGAAAACGAUUCCUUCUAACAGAAAUGUCCUGAGCAAUCACCUAUGAACUUGUUUCAAAUGCAUGAUCAAAUGCAACCUCACAACCUUGGCUGAGUCUUGAGACUGAAAGAUUUAGCCAUAAUGUAAACUGCCUCAAAUUGGACUUUGGGCAUAAAAGAACUUUUUUAUGCUUACCAUCUUUUUUUUUUCUUUAACAGAUUUGUAUUUAAGAAUUG", "values": [{"measurement": "binding result", "setting": "YBX1 [1]", "value": "binds"}, {"measurement": "binding result", "setting": "IMP1 [2]", "value": "binds"}]}
{"binder": "C-MYC CRD (ssRNA) RNA: GGACCAGAUCCCGGAGUUGGAAAACAAUGAAAAGGCCCCCAAGGUAGUUAUCCUUAAAAAAGCCACAGCAUACAUCCUGUCCGUCCAAGCAGAGGAGCAAAAGCUCAUUUCUGAAGAGGACUUGUUGCGGAAACGACGAGAACAGUUGAAACACAAACUUGAACAGCUACGGAACUCUUGUGCG", "values": [{"measurement": "binding signal", "setting": "IMP1_KH1-4mut", "value": "~10 fold reduction vs wild-type IMP1"}, {"measurement": "binding result", "setting": "YBX1 [3]", "value": "binds"}, {"measurement": "binding result", "setting": "IMP1 [4]", "value": "binds"}]}
{"binder": "ACTB exon 5 (ssRNA) RNA: not shown", "values": [{"measurement": "binding result", "setting": "YBX1 [5]", "value": "binds"}, {"measurement": "binding result", "setting": "IMP1 [6]", "value": "no binding"}]}
{"binder": "ACTB 3'UTR (ssRNA) RNA: GGCGGACUAUGACUUAGUUGCGUUACACCCUUUCUUGACAAAACCUAACUUGCGCAGAAAACAAGAUGAGAUUGGCAUGGCUUUAUUUGUUUUUUUUGUUUUGUUUUGGUUUUUUUUUUUUUUUUGGCUUGACUCAGGAUUUAAAAACUGGAACGGUGAAGGUGACAGCAGUCGGUUGGAGCGAGCAUCCCCCAAAGUUCACAAUGUGGCCGAGGACUUUGAUUGCACAUUGUU", "values": [{"measurement": "binding result", "setting": "IMP1 [7]", "value": "binds"}, {"measurement": "binding result", "setting": "YBX1 [8]", "value": "binds"}]}
